These results are taken from publication PMC5120205 (Nature Communications, 2016).

What all share (conditions): both partners purified
Assay [1] has as its target T1, recombinant IsdB NEAT2 domain (Staphylococcus aureus USA300, UniProt Q2FHV2).
T1 construct: not shown: FLAG, C-terminal, kept
Kind of assay: ELISA. On the technique in general: In an ELISA, binding on a coated surface is turned into a signal by an enzyme label.

Assay [2] has as its target T2, recombinant full-length IsdB (Staphylococcus aureus USA300, UniProt Q2FHV2).
T2 construct: not shown: FLAG, C-terminal, kept
Kind of assay: ELISA.

A further assay concerns the target IsdB NEAT2 domain (Staphylococcus aureus USA300, UniProt Q2FHV2). Kind of assay: SPR. For orientation: Surface plasmon resonance follows binding to a sensor surface in real time, without labels.
The target of assay [3] is T3, recombinant full-length IsdB (Staphylococcus aureus USA300, UniProt Q2FHV2).
T3 construct: not shown: FLAG, C-terminal, kept
Kind of assay: SPR.

For assay [4], the target named is T4, recombinant IsdB NEAT1 domain (Staphylococcus aureus USA300, UniProt Q2FHV2).
T4 construct: not shown: FLAG, C-terminal, kept
Put plainly: ELISA.

The target in assay [5] is T2, recombinant full-length IsdB. Put plainly: SPR. The source holds these as a separate data set.
For assay [6], the target named is T3, recombinant full-length IsdB. Kind of assay: BLI; Octet; antibody captured on anti-species sensors (15 ug/ml), 32 nM rIsdB bound, then 1 uM Hb or buffer. On the technique in general: In BLI a coated tip is dipped into the sample, and binding shifts an interference pattern.
The target of assay [7] is T5, recombinant full-length IsdB (Staphylococcus aureus USA300, UniProt Q2FHV2).
T5 construct: not shown: FLAG, C-terminal, kept
Put plainly: ELISA. The source holds these as a separate data set.

The Kd is the free concentration of one partner at which half of the binding sites on the other are occupied at equilibrium, for simple one-to-one binding.

B1: D4-30-N2 (antibody, V domains shown)
VH: QVQLVQSGSEVKKPGSSVTLSCKASGDTFNTHTYSWVRQAPGQRLEWIGGIMPIFAASKSAPHLQDRLTITANKATRTAYMELTSLTSDDSGVYYCARDGRGALQYWGQGTLVTVSS
VL: DIVMTQSPLSLPVTLGQPASISCSSAQSLVHSDGDSYLTWFHQRPGQSPRRLIYKVSIRDAGVPDRFSGSGSGTDFTLKISRVEAEDVGVYYCMQATHWPYTFGQGTKLEIK
As for B1, in assay [1], the binding result is “binds”.

B2: D4-30-N2 antibody (human IgG) (antibody, V domains shown)
VH: QVQLVQSGSEVKKPGSSVTLSCKASGDTFNTHTYSWVRQAPGQRLEWIGGIMPIFAASKSAPHLQDRLTITANKATRTAYMELTSLTSDDSGVYYCARDGRGALQYWGQGTLVTVSS
VL: DIVMTQSPLSLPVTLGQPASISCSSAQSLVHSDGDSYLTWFHQRPGQSPRRLIYKVSIRDAGVPDRFSGSGSGTDFTLKISRVEAEDVGVYYCMQATHWPYTFGQGTKLEIK
For the molecule B2, the binding result (in assay [2]; with IsdB NEAT2 domain) was “binds” throughout.

B3: D4-10-N1 (antibody, V domains shown)
VH: QVQLQESGPGLVKPSETLSLICTVSGGSISSSSYYWGWIRQTPERNLEWIGIIYFSGTTYYNPSLQSRVSMSLDRSTNRFSLRLSSVTAADTAIYYCAKPKSRDRGGPGDDYFGMDVWGQGIMVTVSS
VL: DIQLTQSPSFLSASVADRVTITCRASQAVRSSLAWYQQKPGKAPQLLIYSASTLENGVSSRFSGSGPGTEFTLTISSLQPEDVGTYYCQQLNTYPFTFGPGTKVEIK
Consider B3, for which, in assay [3], the Kd is less than 1 pM. Also, the binding result in assay [4] is “binds”.

B4: D4-10-N1 antibody (human IgG) (antibody, V domains shown)
VH: QVQLQESGPGLVKPSETLSLICTVSGGSISSSSYYWGWIRQTPERNLEWIGIIYFSGTTYYNPSLQSRVSMSLDRSTNRFSLRLSSVTAADTAIYYCAKPKSRDRGGPGDDYFGMDVWGQGIMVTVSS
VL: DIQLTQSPSFLSASVADRVTITCRASQAVRSSLAWYQQKPGKAPQLLIYSASTLENGVSSRFSGSGPGTEFTLTISSLQPEDVGTYYCQQLNTYPFTFGPGTKVEIK
In the case of B4, the binding result in assay [5] is “binds”.

B5: germlined D4-10 (NEAT1) (antibody, V domains shown)
VH: QLQLQESGPGLVKPSETLSLTCTVSGGSISSSSYYWGWIRQPPGKGLEWIGSIYYSGSTYYNPSLKSRVTISVDTSKNQFSLKLSSVTAADTAVYYCAKPKSRDRGGPGDDYFGMDVWGQGIMVTVSS
VL: DIQLTQSPSFLSASVADRVTITCRASQAVRSSLAWYQQKPGKAPQLLIYSASTLENGVSSRFSGSGPGTEFTLTISSLQPEDVGTYYCQQLNTYPFTFGPGTKVEIK
As to B5, in assay [6], the binding result is “binds”.

B6: D4-10-N1 germline-reverted (IGHV4-39) (antibody, V domains shown)
VH: QLQLQESGPGLVKPSETLSLTCTVSGGSISSSSYYWGWIRQPPGKGLEWIGSIYYSGSTYYNPSLKSRVTISVDTSKNQFSLKLSSVTAADTAVYYCAKPKSRDRGGPGDDYFGMDVWGQGIMVTVSS
VL: DIQLTQSPSFLSASVADRVTITCRASQAVRSSLAWYQQKPGKAPQLLIYSASTLENGVSSRFSGSGPGTEFTLTISSLQPEDVGTYYCQQLNTYPFTFGPGTKVEIK
For the molecule B6, the binding result in assay [5] was “binds”.

B7: D2-06-N2 (IGHV1-69*01 germline-reverted) (antibody, V domains shown)
VH: QVQLVQSGAEVKKPGSSVKVSCKASGGTFSSYAISWVRQAPGQGLEWMGGIIPIFGTANYAQKFQGRVTITADESTSTAYMELSSLRSEDTAVYYCARDRPPGAQFDTWGQGTLVTVSS
VL: not shown
For the molecule B7, in the assay with IsdB NEAT2 domain, the other is greater than 600 fold.

B8: D2-06-N2 (IGHV1-69*01 germline-reverted) variant G50R (antibody, V domains shown)
VH: QVQLVQSGAEVKKPGSSVKVSCKASGGTFSSYAISWVRQAPGQGLEWMGRIIPIFGTANYAQKFQGRVTITADESTSTAYMELSSLRSEDTAVYYCARDRPPGAQFDTWGQGTLVTVSS
VL: not shown
For the molecule B8, the binding result in assay [7] was “no binding”.

B9: D2-06-N2 (IGHV1-69*01 germline-reverted) variant F54L (antibody, V domains shown)
VH: QVQLVQSGAEVKKPGSSVKVSCKASGGTFSSYAISWVRQAPGQGLEWMGGIIPILGTANYAQKFQGRVTITADESTSTAYMELSSLRSEDTAVYYCARDRPPGAQFDTWGQGTLVTVSS
VL: not shown
For B9, in assay [2], the binding result is reported as “binds”.

B10: D2-06-N2 (IGHV1-69*01 germline-reverted) variant T56I (antibody, V domains shown)
VH: QVQLVQSGAEVKKPGSSVKVSCKASGGTFSSYAISWVRQAPGQGLEWMGGIIPIFGIANYAQKFQGRVTITADESTSTAYMELSSLRSEDTAVYYCARDRPPGAQFDTWGQGTLVTVSS
VL: not shown
For the molecule B10, the binding result in assay [2] is “binds”.
